T1: EsCas13d, nuclease-dead (Eubacterium siraeum, UniProt B0MS50, R295A;H300A;R849A;H854A)
T1 sequence: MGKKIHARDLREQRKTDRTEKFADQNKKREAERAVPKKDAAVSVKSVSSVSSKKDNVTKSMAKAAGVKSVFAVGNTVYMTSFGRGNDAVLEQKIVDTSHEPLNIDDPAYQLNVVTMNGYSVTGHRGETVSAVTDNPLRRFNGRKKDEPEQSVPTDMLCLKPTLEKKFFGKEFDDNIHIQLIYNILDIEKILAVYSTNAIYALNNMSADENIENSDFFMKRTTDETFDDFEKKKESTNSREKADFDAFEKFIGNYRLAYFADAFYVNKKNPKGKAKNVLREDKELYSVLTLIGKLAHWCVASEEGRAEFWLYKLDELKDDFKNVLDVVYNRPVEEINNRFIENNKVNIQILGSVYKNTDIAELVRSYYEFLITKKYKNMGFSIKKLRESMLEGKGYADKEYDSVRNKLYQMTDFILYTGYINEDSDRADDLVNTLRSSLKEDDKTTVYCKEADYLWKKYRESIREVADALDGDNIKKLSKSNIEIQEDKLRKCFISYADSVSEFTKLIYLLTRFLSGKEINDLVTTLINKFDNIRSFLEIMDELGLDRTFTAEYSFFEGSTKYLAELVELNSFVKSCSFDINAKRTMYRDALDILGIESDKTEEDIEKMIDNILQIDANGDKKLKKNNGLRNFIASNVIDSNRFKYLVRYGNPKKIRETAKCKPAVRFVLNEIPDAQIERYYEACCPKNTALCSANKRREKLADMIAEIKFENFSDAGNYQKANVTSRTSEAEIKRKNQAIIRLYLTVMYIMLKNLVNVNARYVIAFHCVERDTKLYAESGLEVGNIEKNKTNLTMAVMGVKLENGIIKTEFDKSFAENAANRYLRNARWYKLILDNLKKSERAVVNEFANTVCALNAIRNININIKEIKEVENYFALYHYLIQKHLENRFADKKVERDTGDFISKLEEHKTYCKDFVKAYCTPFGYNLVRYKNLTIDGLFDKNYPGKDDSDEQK

B1: target 1 U8A,C22A (mixed)
RNA 1: CACCCGUGCAAAAAUGCAGGGGUCUAAAACUGAGCGGAUAACCUCUCUAUGG
RNA 2: GGGAAUGGAUCCACAUCUACGAAUUCGUAACAUAGAGAGGUUAACCGCUCACCGAGAUCGGAAGAGCACACGU
B2: target 1 insG 3' of 21,insA 3' of 3 (mixed)
RNA 1: CACCCGUGCAAAAAUGCAGGGGUCUAAAACUGAGCGGAUAACCUCUCUAUGG
RNA 2: GGGAAUGGAUCCACAUCUACGAAUUCGUACCGAUAGAGAGGUUAUCCGCUACACCGAGAUCGGAAGAGCACACGU
B3: target 3 insG 3' of 6,insA 3' of 6 (mixed)
RNA 1: CACCCGUGCAAAAUUGCAGGGGUCUAAAACGACCUGAAUAUUUCAGAUCAAA
RNA 2: GGGAAUGGAUCCACAUCUACGAAUUCGUUUUUGAUCUGAAAUAUUCGAAGGUCUGCAGAUCGGAAGAGCACACGU
B4: target 3 C1G,A9U (mixed)
RNA 1: CACCCGUGCAAAAUUGCAGGGGUCUAAAACGACCUGAAUAUUUCAGAUCAAA
RNA 2: GGGAAUGGAUCCACAUCUACGAAUUCGUUUUUGAUCUGAAAUUUUCAGGUGUGCAGAUCGGAAGAGCACACGU
B5: target 3 U2G,G4A (mixed)
RNA 1: CACCCGUGCAAAAUUGCAGGGGUCUAAAACGACCUGAAUAUUUCAGAUCAAA
RNA 2: GGGAAUGGAUCCACAUCUACGAAUUCGUUUUUGAUCUGAAAUAUUCAAGGCUGCAGAUCGGAAGAGCACACGU
B6: target 3 G3C,A9G (mixed)
RNA 1: CACCCGUGCAAAAUUGCAGGGGUCUAAAACGACCUGAAUAUUUCAGAUCAAA
RNA 2: GGGAAUGGAUCCACAUCUACGAAUUCGUUUUUGAUCUGAAAUGUUCAGCUCUGCAGAUCGGAAGAGCACACGU
B7: target 3 A18U,U22A (mixed)
RNA 1: CACCCGUGCAAAAUUGCAGGGGUCUAAAACGACCUGAAUAUUUCAGAUCAAA
RNA 2: GGGAAUGGAUCCACAUCUACGAAUUCGUUAUUGUUCUGAAAUAUUCAGGUCUGCAGAUCGGAAGAGCACACGU
B8: target 3 C6U,A12C (mixed)
RNA 1: CACCCGUGCAAAAUUGCAGGGGUCUAAAACGACCUGAAUAUUUCAGAUCAAA
RNA 2: GGGAAUGGAUCCACAUCUACGAAUUCGUUUUUGAUCUGACAUAUUUAGGUCUGCAGAUCGGAAGAGCACACGU
B9: target 3 U7A,A18G (mixed)
RNA 1: CACCCGUGCAAAAUUGCAGGGGUCUAAAACGACCUGAAUAUUUCAGAUCAAA
RNA 2: GGGAAUGGAUCCACAUCUACGAAUUCGUUUUUGGUCUGAAAUAUACAGGUCUGCAGAUCGGAAGAGCACACGU
B10: target 3 U20A,U21G (mixed)
RNA 1: CACCCGUGCAAAAUUGCAGGGGUCUAAAACGACCUGAAUAUUUCAGAUCAAA
RNA 2: GGGAAUGGAUCCACAUCUACGAAUUCGUUUGAGAUCUGAAAUAUUCAGGUCUGCAGAUCGGAAGAGCACACGU
B11: target 3 C1G,G3C (mixed)
RNA 1: CACCCGUGCAAAAUUGCAGGGGUCUAAAACGACCUGAAUAUUUCAGAUCAAA
RNA 2: GGGAAUGGAUCCACAUCUACGAAUUCGUUUUUGAUCUGAAAUAUUCAGCUGUGCAGAUCGGAAGAGCACACGU
B12: target 3 C1A,G3C (mixed)
RNA 1: CACCCGUGCAAAAUUGCAGGGGUCUAAAACGACCUGAAUAUUUCAGAUCAAA
RNA 2: GGGAAUGGAUCCACAUCUACGAAUUCGUUUUUGAUCUGAAAUAUUCAGCUAUGCAGAUCGGAAGAGCACACGU
B13: target 3 del1,del15 (mixed)
RNA 1: CACCCGUGCAAAAUUGCAGGGGUCUAAAACGACCUGAAUAUUUCAGAUCAAA
RNA 2: GGGAAUGGAUCCACAUCUACGAAUUCGUUUUUGAUCGAAAUAUUCAGGUUGCAGAUCGGAAGAGCACACGU
B14: target 3 insU 3' of 22,insG 3' of 1 (mixed)
RNA 1: CACCCGUGCAAAAUUGCAGGGGUCUAAAACGACCUGAAUAUUUCAGAUCAAA
RNA 2: GGGAAUGGAUCCACAUCUACGAAUUCGUUUUUUGAUCUGAAAUAUUCAGGUCGUGCAGAUCGGAAGAGCACACGU
B15: target 3 insC 3' of 9,insU 3' of 3 (mixed)
RNA 1: CACCCGUGCAAAAUUGCAGGGGUCUAAAACGACCUGAAUAUUUCAGAUCAAA
RNA 2: GGGAAUGGAUCCACAUCUACGAAUUCGUUUUUGAUCUGAAAUACUUCAGGUUCUGCAGAUCGGAAGAGCACACGU
B16: target 3 insC 3' of 11,insG 3' of 7 (mixed)
RNA 1: CACCCGUGCAAAAUUGCAGGGGUCUAAAACGACCUGAAUAUUUCAGAUCAAA
RNA 2: GGGAAUGGAUCCACAUCUACGAAUUCGUUUUUGAUCUGAAACUAUUGCAGGUCUGCAGAUCGGAAGAGCACACGU
B17: target 3 C1A,U2C (mixed)
RNA 1: CACCCGUGCAAAAUUGCAGGGGUCUAAAACGACCUGAAUAUUUCAGAUCAAA
RNA 2: GGGAAUGGAUCCACAUCUACGAAUUCGUUUUUGAUCUGAAAUAUUCAGGCAUGCAGAUCGGAAGAGCACACGU
B18: target 3 insA 3' of 2,insG 3' of 1 (mixed)
RNA 1: CACCCGUGCAAAAUUGCAGGGGUCUAAAACGACCUGAAUAUUUCAGAUCAAA
RNA 2: GGGAAUGGAUCCACAUCUACGAAUUCGUUUUUGAUCUGAAAUAUUCAGGUACGUGCAGAUCGGAAGAGCACACGU
B19: target 3 U2A,U7C (mixed)
RNA 1: CACCCGUGCAAAAUUGCAGGGGUCUAAAACGACCUGAAUAUUUCAGAUCAAA
RNA 2: GGGAAUGGAUCCACAUCUACGAAUUCGUUUUUGAUCUGAAAUAUCCAGGACUGCAGAUCGGAAGAGCACACGU
B20: target 3 A9U (mixed)
RNA 1: CACCCGUGCAAAAUUGCAGGGGUCUAAAACGACCUGAAUAUUUCAGAUCAAA
RNA 2: GGGAAUGGAUCCACAUCUACGAAUUCGUUUUUGAUCUGAAAUUUUCAGGUCUGCAGAUCGGAAGAGCACACGU
B21: target 3 insA 3' of 2,insU 3' of 1 (mixed)
RNA 1: CACCCGUGCAAAAUUGCAGGGGUCUAAAACGACCUGAAUAUUUCAGAUCAAA
RNA 2: GGGAAUGGAUCCACAUCUACGAAUUCGUUUUUGAUCUGAAAUAUUCAGGUACUUGCAGAUCGGAAGAGCACACGU
B22: target 3 G3C (mixed)
RNA 1: CACCCGUGCAAAAUUGCAGGGGUCUAAAACGACCUGAAUAUUUCAGAUCAAA
RNA 2: GGGAAUGGAUCCACAUCUACGAAUUCGUUUUUGAUCUGAAAUAUUCAGCUCUGCAGAUCGGAAGAGCACACGU
B23: target 3 insU 3' of 9,insA 3' of 7 (mixed)
RNA 1: CACCCGUGCAAAAUUGCAGGGGUCUAAAACGACCUGAAUAUUUCAGAUCAAA
RNA 2: GGGAAUGGAUCCACAUCUACGAAUUCGUUUUUGAUCUGAAAUAUUUACAGGUCUGCAGAUCGGAAGAGCACACGU
B24: target 3 C1U,U2C (mixed)
RNA 1: CACCCGUGCAAAAUUGCAGGGGUCUAAAACGACCUGAAUAUUUCAGAUCAAA
RNA 2: GGGAAUGGAUCCACAUCUACGAAUUCGUUUUUGAUCUGAAAUAUUCAGGCUUGCAGAUCGGAAGAGCACACGU
B25: target 3 insU 3' of 9,insA 3' of 6 (mixed)
RNA 1: CACCCGUGCAAAAUUGCAGGGGUCUAAAACGACCUGAAUAUUUCAGAUCAAA
RNA 2: GGGAAUGGAUCCACAUCUACGAAUUCGUUUUUGAUCUGAAAUAUUUCAAGGUCUGCAGAUCGGAAGAGCACACGU
B26: target 3 insC 3' of 22,insA 3' of 3 (mixed)
RNA 1: CACCCGUGCAAAAUUGCAGGGGUCUAAAACGACCUGAAUAUUUCAGAUCAAA
RNA 2: GGGAAUGGAUCCACAUCUACGAAUUCGUUUCUUGAUCUGAAAUAUUCAGGAUCUGCAGAUCGGAAGAGCACACGU
B27: target 3 insC 3' of 7,insA 3' of 7 (mixed)
RNA 1: CACCCGUGCAAAAUUGCAGGGGUCUAAAACGACCUGAAUAUUUCAGAUCAAA
RNA 2: GGGAAUGGAUCCACAUCUACGAAUUCGUUUUUGAUCUGAAAUAUUCACAGGUCUGCAGAUCGGAAGAGCACACGU

The results in this text go back to publication PMC10786891, “Massively parallel profiling of RNA-targeting CRISPR-Cas13d”.

As usually defined, the Kd is a measure of binding affinity in units of concentration.

The target in the data set is T1, EsCas13d, nuclease-dead. Description: crRNA (strand 1, pre-loaded); Mg2+; 40 mM Tris-HCl pH 7.5, 150 mM NaCl, 6 mM MgCl2, 1 mM DTT, 0.1% Tween-20, 0.2 mg/ml BSA; 25 C; 10 min per concentration, then washed. The note with it: tags: His6-TwinStrep-SUMO cleaved; N-terminal SNAP kept (SNAP-Surface 488); label: 3' end held by stalled T7 RNA polymerase.
On to B1, for which the affinity, expressed as Kd, was 31.1 ± 2.2 nM.

In the case of B2, binding was characterised by a dissociation constant (Kd) of 54 ± 12 nM.

B3 registered a Kd of 8.8 ± 0.75 nM.

Molecule B4 displayed a Kd of 100 ± 40 nM.

In turn, B5 returned a dissociation constant (Kd) of 2.01 ± 0.17 nM.

In turn, B6 came in with a Kd of 55.5 ± 5.5 nM.

In the case of B7, the Kd was found to be 97.5 ± 30.5 nM.

In turn, B8 returned a Kd of 72 ± 12.5 nM.

For the molecule B9, the Kd worked out at 49 ± 6 nM.

In turn, B10 registered a Kd of 98 ± 39.5 nM.

For B11, the dissociation constant Kd stood at 26.5 ± 5 nM.

Turning to B12, the dissociation constant Kd worked out at 65.5 ± 29.5 nM.

On to B13, for which the Kd amounted to 62 ± 18 nM.

B14 yielded a Kd of 32.5 ± 5.5 nM.

With B15, the affinity, expressed as Kd, was 114 ± 29 nM.

Molecule B16 came in with a Kd of 49 ± 11.5 nM.

As for B17, binding was characterised by a dissociation constant (Kd) of 18.6 ± 3.7 nM.

Molecule B18 came in with a Kd of 36 ± 9 nM.

The molecule B19 returned an equilibrium dissociation constant (Kd) of 38 ± 13 nM.

B20 came in with a Kd of about 120 nM.

As to B21, binding was put at a Kd of 85.5 ± 20.5 nM.

In turn, B22 came in with a Kd of 19.9 ± 1.35 nM.

In turn, B23 yielded a Kd of 51 ± 10.5 nM.

For B24, the Kd came to 54 ± 18.5 nM.

B25 registered a dissociation constant (Kd) of 85 ± 40 nM.

Regarding B26, the Kd was found to be 65.5 ± 14 nM.

Turning to B27, the affinity, expressed as Kd, was 11 ± 1.4 nM.
